Consider 3 molecules from US20220073594A1 (NEWSOARA BIOPHARMA, published 2022).

Numbering of substitutions follows the chain as printed.

In assay [1] the target is SARS-CoV-2 RBD protein (receptor-binding domain of the spike protein) (SARS-CoV-2, UniProt P0DTC2 319-541). In words: ELISA, coated RBD protein, antibody at 1 ug/mL. The procedure:
(§1) Polystyrene microplates (Corning) were coated overnight with 0.1 or 1 μg/mL of SARS-CoV-2 S, S1 or RBD protein (Sino Biological). After washing with PBS containing 0.2% Tween 20, the plates were blocked using 2% BSA (Sigma Aldrich) in PBST for 1 hour at 37° C. Following washing with PBST, testing antibodies (1 ug/mL) were added to each well and incubated at 37° C. for 1 hour. After washing with PBST, HRP-conjugated goat anti-human IgG antibody was added at the dilution of 1:5000 and incubated at 37° C. for 1 hour. After washing, 3,3′,5,5′-Tetramethylbenzidine (TMB) substrate solution was added to the microplate and incubated at room temperature for 6 min, followed by adding 2M H₂SO₄ to stop the reaction. The absorbance was detected at 450 nm.
(An ELISA detects its analyte on a solid surface through an enzyme-linked reagent.)

A further assay deals with T1, SARS-CoV-2 S1 subunit (SARS-CoV-2, UniProt P0DTC2 16-685).
T1 construct: domain: S1 subunit
The assay can be described thus: ELISA, coated S1 protein, antibody at 1 ug/mL. On the procedure:
as §1

For assay [2], the target named is SARS-CoV-2 spike protein (S protein) (SARS-CoV-2, UniProt P0DTC2 16-1213). The assay can be described thus: ELISA, coated S protein, antibody at 1 ug/mL. On the procedure:
as §1

B1: Antibody 15A7 (antibody, V domains shown)
VH: QVQLVQSGAEVKKPGASVKVSCKASGYTFTSYDINWVRQASGQGLEWMGWMNPNSANPGYAQKFQGRVTMTRNTSISTAFMELSSLRSDDTAVYYCARARVTIHYDILTGYYSNAFDIWGQGTMVAVSS
VL: DIQMTQSPSSLSASVGDRVTITCRASQTISSYLNWYQQKPGKAPKLLIYAASSLQSGVPSRFSGSGSGADFTLTISSLQPEDFATYYCQQSYTTFMYTFGQGTMLEIK
As to B1, the binding result (in assay [1]; with SARS-CoV-2 S1 subunit; in assay [2]) was “binds” each time.

B2: Antibody 37G2 (antibody, V domains shown)
VH: QVQLVQSGAEVKKPGSSVKVSCKASGGTFSSYAITWVRQAPGQGLEWMGGIIPIFGTANFAQKFQGRVTITADESTSTAYMELSSLRSEDTAVYYCAHLGGFADPFDYWGQGTLVTVSS
VL: EIVLTQSPATLSLSPGERATLSCRASQSVSNYLAWYQQKAGQAPRVLIYDAFNRATGIPARFSGSGSGTDFTLTISSLEPEDFAVYYCQQRSNWPPRITFGQGTRLEIK
On to B2, for which the binding result with SARS-CoV-2 S1 subunit is recorded as “no binding (tested: 1 ug/mL)”.

B3: Antibody 31C2 (antibody, V domains shown)
VH: QVQLVQSGAEVKKPGSSVKVSCKASGGTFSSYAISWVRQAPGQGLEWMGGIIPIFGTTNYAQKFQGRVTITADESTSTAYMELNSLRSEDTAVYYCAGRSAYGDKGYYFDYWGQGTLVTVSS
VL: B2 VL with Y32F, A40P, V46L, F52S, E79Q, R97Q, I98E, R105K, L106V
As to B3, the binding result with SARS-CoV-2 S1 subunit is “no binding (tested: 1 ug/mL)”.
